Data reported in US20100047230A1 (HELLENIC PASTEUR INSTITUTE, published 2010).

Tests used:
Experiment in all cases: ELISA on coated antigen
[1] = target: T1, human serum albumin (human, UniProt P02768 25-609)
T1 construct: Irrelevant antigen control, produced in P. pastoris; also called HSA

[2] = target: T2, bovine serum albumin (bovine, UniProt P02769 25-607)
T2 construct: Irrelevant antigen control; also called BSA

[3] = target: T3, alpha1-ECD of human AChR (human, UniProt P02708 21-230, limits assumed)
T3 construct: extracellular domain; Irrelevant antigen control; also called α1-ECD; α1-AChR
T3 sequence (P02708 21-230 limits assumed): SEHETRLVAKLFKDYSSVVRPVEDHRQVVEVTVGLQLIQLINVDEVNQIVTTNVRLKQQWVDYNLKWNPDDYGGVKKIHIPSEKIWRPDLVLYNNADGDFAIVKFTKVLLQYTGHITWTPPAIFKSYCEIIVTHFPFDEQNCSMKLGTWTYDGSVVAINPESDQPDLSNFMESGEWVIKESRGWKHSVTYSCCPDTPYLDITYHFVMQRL

T2 sequence (P02769 25-607 limits assumed): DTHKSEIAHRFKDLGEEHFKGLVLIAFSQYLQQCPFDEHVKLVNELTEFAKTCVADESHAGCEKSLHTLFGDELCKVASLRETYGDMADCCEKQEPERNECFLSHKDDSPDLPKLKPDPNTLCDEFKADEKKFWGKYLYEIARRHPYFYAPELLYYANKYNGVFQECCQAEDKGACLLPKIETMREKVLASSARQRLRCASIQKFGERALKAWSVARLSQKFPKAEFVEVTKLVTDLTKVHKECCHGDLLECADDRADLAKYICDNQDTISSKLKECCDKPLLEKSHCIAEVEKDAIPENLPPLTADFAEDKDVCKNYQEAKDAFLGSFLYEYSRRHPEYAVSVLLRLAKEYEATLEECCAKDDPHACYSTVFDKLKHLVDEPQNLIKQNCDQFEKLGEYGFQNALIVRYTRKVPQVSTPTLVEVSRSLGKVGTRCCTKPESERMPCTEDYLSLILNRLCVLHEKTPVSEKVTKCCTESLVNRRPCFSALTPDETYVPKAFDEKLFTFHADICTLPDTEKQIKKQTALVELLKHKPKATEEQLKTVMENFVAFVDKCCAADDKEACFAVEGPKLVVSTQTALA

B1: Fab63 (Fab, V domains shown)
VH: EVQLLEWGPGLVKPSGTLSLTCAVSGGSIRDSNWWGWVRQPPGKGLEWIGEIYHSGTTNYNPSLKSRVTISVDKSKNQFSLNLSSVTAADTAVYYCAREDCSYGSCYFDYWGQGTLVTVSS
VL: ELTLTQSPSSLSASLGDRVTIRCRASQSISAALNWYQQKPGKAPKLLIHDVSTLQSGVPARFSGGGSETDFTLTISSLQPEDFATYYCQQSYRVPLTFGGGTRLEIK
notes: Fully human soluble Fab made in E. coli from pComb3H; Heavy chain is an Fd of the gamma1 isotype (VH-CH1), light chain is kappa (VL of the K subgroup, with Ckappa); also called human Fab 63; clone 63
B1: no binding (tested: antigen coated at 10 µg/ml) [1]; no binding (tested: antigen coated at 10 µg/ml) [2]; no binding (tested: antigen coated at 10 µg/ml) [3].
